Results published in IntAct's records for PubMed 9343432.

B1: Polyhomeotic-proximal chromatin protein (Drosophila melanogaster (Fruit fly)), P39769 (parent)
chain: MDRRALKFMQKRADTESDTTTPVSTTASQGISASAILAGGTLPLKDNSNIREKPLHHNYNHNNNNSSQHSHSHQQQQQQQVGGKQLERPLKCLETLAQKAGITFDEKYDVASPPHPGIAQQQATSGTGPATGSGSVTPTSHRHGTPPTGRRQTHTPSTPNRPSAPSTPNTNCNSIARHTSLTLEKAQNPGQQVAATTTVPLQISPEQLQQFYASNPYAIQVKQEFPTHTTSGSGTELKHATNIMEVQQQLQLQQQLSEANGGGAASAGAGGAASPANSQQSQQQQHSTAISTMSPMQLAAATGGVGGDWTQGRTVQLMQPSTSFLYPQMIVSGNLLHPGGLGQQPIQVITAGKPFQGNGPQMLTTTTQNAKQMIGGQAGFAGGNYATCIPTNHNQSPQTVLFSPMNVISPQQQQNLLQSMAAAAQQQQLTQQQQQFNQQQQQQLTQQQQQLTAALAKVGVDAQGKLAQKVVQKVTTTSSAVQAATGPGSTGSTQTQQVQQVQQQQQQTTQTTQQCVQVSQSTLPVGVGGQSVQTAQLLNAGQAQQMQIPWFLQNAAGLQPFGPNQIILRNQPDGTQGMFIQQQPATQTLQTQQNQIIQCNVTQTPTKARTQLDALAPKQQQQQQQVGTTNQTQQQQLAVATAQLQQQQQQLTAAALQRPGAPVMPHNGTQVRPASSVSTQTAQNQSLLKAKMRNKQQPVRPALATLKTEIGQVAGQNKVVGHLTTVQQQQQATNLQQVVNAAGNKMVVMSTTGTPITLQNGQTLHAATAAGVDKQQQQLQLFQKQQILQQQQMLQQQIAAIQMQQQQAAVQAQQQQQQQVSQQQQVNAQQQQAVAQQQQAVAQAQQQQREQQQQVAQAQAQHQQALANATQQILQVAPNQFITSHQQQQQQQLHNQLIQQQLQQQAQAQVQAQVQAQAQQQQQQREQQQNIIQQIVVQQSGATSQQTSQQQQHHQSGQLQLSSVPFSVSSSTTPAGIATSSALQAALSASGAIFQTAKPGTCSSSSPTSSVVTITNQSSTPLVTSSTVASIQQAQTQSAQVHQHQQLISATIAGGTQQQPQGPPSLTPTTNPILAMTSMMNATVGHLSTAPPVTVSVTSTAVTSSPGQLVLLSTASSGGGGSIPATPTKETPSKGPTATLVPIGSPKTPVSGKDTCTTPKSSTPATVSASVEASSSTGEALSNGDASDRSSTPSKGATTPTSKQSNAAVQPPSSTTPNSVSGKEEPKLATCGSLTSATSTSTTTTITNGIGVARTTASTAVSTASTTTTSSGTFITSCTSTTTTTTSSISNGSKDLPKAMIKPNVLTHVIDGFIIQEANEPFPVTRQRYADKDVSDEPPKKKATMQEDIKLSGIASAPGSDMVACEQCGKMEHKAKLKRKRYCSPGCSRQAKNGIGGVGSGETNGLGTGGIVGVDAMALVDRLDEAMAEEKMQTEATPKLSESFPILGASTEVPPMSLPVQAAISAPSPLAMPLGSPLSVALPTLAPLSVVTSGAAPKSSEVNGTDRPPISSWSVDDVSNFIRELPGCQDYVDDFIQQEIDGQALLLLKEKHLVNAMGMKLGPALKIVAKVESIKEVPPPGEAKDPGAQ
B2: Polycomb protein Scm (Drosophila melanogaster (Fruit fly)), Q9VHA0 (parent)
chain: MSGGRDSSTSSGSNSAAPGASTNATSSASASASSTSTSASPGSTTSPASTQRQRGRPAKRATCTWCGEGKLPLQYVLPTQTGKKEFCSETCIAEFRKAYSKGACTQCDNVIRDGAPNKEFCSIMCMNKHQKKNCSTRHSGGSASGKGLAESERKLLASGAPAPTGPFQYESFHVFDWDAYLEETGSEAAPAKCFKQAQNPPNNDFKIGMKLEALDPRNVTSTCIATVVGVLGSRLRLRLDGSDSQNDFWRLVDSTEIHAIGHCEKNGGMLQPPLGFRMNASSWPGYLCKILNNAMVAPEEIFQPEPPEPEENLFKVGQKLEAVDKKNPQLICCATVDAIKDDQIHVTFDGWRGAFDYWCNYRSRDIFPAGWCARSCHPMQPPGHKSRMDSSSSKQRCPRPRYTVVAESEAMVPASPATAHFHPNCKGGPFINNSKLPCMVTGPTYQTLAKLCLQEVLAASTDTQQLSKLLFALEGDVHIVTAAGKNFTVKIPSPMRMKDDESLAQFIETLCTTCRACANLISLVHETEECKKCANSRKRQLTQSATPPSSPVLADKRNRQSNSATTSPSEKIIKQELAVKSPVESKSKTSTNNGKEPASQQNSNHSLNNNNNSASKSSNKVVIKSEPNGANAQTSSTTQALRKVRFQHHANTNTNSSATNGNQDTSQTTHVSTSHCSSSSTSSSTSLAGGSANTSTIGKYLAPLVAEVHPEQANVKPSNSYYKSPTTLSSSASLPTSVSTPFTGCQSASSTALAAGGVTAAKAATAPAGAAATAGASPSYTAITSPVSTPTSALANSHLRSQPIDWTIEEVIQYIESNDNSLAVHGDLFRKHEIDGKALLLLNSEMMMKYMGLKLGPALKICNLVNKVNGRRNNLAL

Variants of: B1
Conditions: with scm_drome Scm, Q9VHA0

| Variant | effect of a mutation on the interaction |
| --- | --- |
| W1513A | decreasing interaction |
| G1562A | decreasing interaction |

Variants of: B2
Conditions: with php_drome ph-p, P39769

| Variant | effect of a mutation on the interaction |
| --- | --- |
| G836S | decreasing interaction |
